Literature values as cited in article PMC3347567.

Biological target: PEDF-R (Homo sapiens) (UniProt Q96AD5)
Sequence of UniProt Q96AD5 (Q96AD5 whole entry): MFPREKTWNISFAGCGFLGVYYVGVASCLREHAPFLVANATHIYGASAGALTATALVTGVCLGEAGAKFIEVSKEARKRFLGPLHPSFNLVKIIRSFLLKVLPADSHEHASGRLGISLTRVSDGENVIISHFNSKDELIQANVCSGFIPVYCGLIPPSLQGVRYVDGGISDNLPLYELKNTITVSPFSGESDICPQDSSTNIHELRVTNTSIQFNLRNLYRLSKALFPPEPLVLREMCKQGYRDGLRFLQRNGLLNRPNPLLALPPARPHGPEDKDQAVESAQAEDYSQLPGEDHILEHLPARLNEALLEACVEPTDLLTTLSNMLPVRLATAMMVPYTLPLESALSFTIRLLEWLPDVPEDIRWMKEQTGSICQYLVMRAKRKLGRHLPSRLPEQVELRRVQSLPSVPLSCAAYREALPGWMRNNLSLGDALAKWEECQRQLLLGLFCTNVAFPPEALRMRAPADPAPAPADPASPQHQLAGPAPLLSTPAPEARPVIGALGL

In the case of PEDF (from UniProt P36955), the Kd is given as 3.03 nM.
